Source: PMC11396700, “Synthesis and Biological Activity of Homohypotaurine Obtained by the Enzyme-Based Conversion of Homocysteine Sulfinic Acid Using Recombinant Escherichia Coli Glutamate Decarboxylase” (Molecules, 2024)

B1: EcGadB (Escherichia coli K-12) (protein)
chain: MDKKQVTDLRSELLDSRFGAKSISTIAESKRFPLHEMRDDVAFQIINDELYLDGNARQNLATFCQTWDDENVHKLMDLSINKNWIDKEEYPQSAAIDLRCVNMVADLWHAPAPKNGQAVGTNTIGSSEACMLGGMAMKWRWRKRMEAAGKPTDKPNLVCGPVQICWHKFARYWDVELREIPMRPGQLFMDPKRMIEACDENTIGVVPTFGVTYTGNYEFPQPLHDALDKFQADTGIDIDMHIDAASGGFLAPFVAPDIVWDFRLPRVKSISASGHKFGLAPLGCGWVIWRDEEALPQELVFNVDYLGGQIGTFAINFSRPAGQVIAQYYEFLRLGREGYTKVQNASYQVAAYLADEIAKLGPYEFICTGRPDEGIPAVCFKLKDGEDPGYTLYDLSERLRLRGWQVPAFTLGGEATDIVVMRIMCRRGFEMDFAELLLEDYKASLKYLSDHPKLQGIAQQNSFKHT
notes: recombinant, purified full-length enzyme, prepared by earlier published protocol; PLP enzyme

Assays:
EcGadB = biological target: T1, EcGadB (Escherichia coli, UniProt P69910); assay: decarboxylation; GABA quantified by end-point GABase assay (NADPH at […] nm), Michaelis-Menten fit; type: biochemical; conditions: pyridine/HCl 0.2 M (0.1 M in Figure 2 legend), pH 4.6, 37 °C, 1 mM PLP, 0.1 mM DTT; 0.15-10 mM substrate
T1 construct: gene gadB; recombinant, purified full-length enzyme, prepared by earlier published protocol; PLP enzyme
T1 sequence (P69910 1-466): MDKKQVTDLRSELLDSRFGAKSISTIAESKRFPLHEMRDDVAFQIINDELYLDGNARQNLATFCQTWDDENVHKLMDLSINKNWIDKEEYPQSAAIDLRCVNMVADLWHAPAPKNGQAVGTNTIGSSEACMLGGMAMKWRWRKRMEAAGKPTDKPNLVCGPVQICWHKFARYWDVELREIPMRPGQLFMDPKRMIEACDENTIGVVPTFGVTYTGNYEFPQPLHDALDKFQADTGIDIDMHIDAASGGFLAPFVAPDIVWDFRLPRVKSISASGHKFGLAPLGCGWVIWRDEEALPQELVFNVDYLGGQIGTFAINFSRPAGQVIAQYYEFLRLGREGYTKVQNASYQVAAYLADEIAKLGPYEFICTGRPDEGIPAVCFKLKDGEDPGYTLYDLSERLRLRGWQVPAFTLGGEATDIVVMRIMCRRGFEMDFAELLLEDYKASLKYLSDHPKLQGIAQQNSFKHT

purified protein = substrate: N[C@@H](CCS(=O)O)C(=O)O; assay: purified protein; type: biochemical, Escherichia coli; conditions: pyridine/HCl 0.2 M (0.1 M in Figure 2 legend), pH 4.6, 37 °C, 1 mM PLP, 0.1 mM DTT, 3-300 mM substrate

Row | Molecule | Km (EcGadB) [µM] | Km (purified protein) [µM] | kcat (purified protein) [s⁻¹] | kcat/Km (purified protein) [M⁻¹ s⁻¹]
1 | N[C@@H](CCC(=O)O)C(=O)O [L-Glu, L-Glutamic acid] | 840 ± 90 | – | – | –
2 | B1 | – | 38240 ± 3450 | 33.9 ± 1.07 | 890 ± 90
